Assay results reported in IntAct's records for PubMed 38057552.

B1: Sodium/glucose cotransporter 2 (Homo sapiens), P31639 (parent)
chain: MEEHTEAGSAPEMGAQKALIDNPADILVIAAYFLLVIGVGLWSMCRTNRGTVGGYFLAGRSMVWWPVGASLFASNIGSGHFVGLAGTGAASGLAVAGFEWNALFVVLLLGWLFAPVYLTAGVITMPQYLRKRFGGRRIRLYLSVLSLFLYIFTKISVDMFSGAVFIQQALGWNIYASVIALLGITMIYTVTGGLAALMYTDTVQTFVILGGACILMGYAFHEVGGYSGLFDKYLGAATSLTVSEDPAVGNISSFCYRPRPDSYHLLRHPVTGDLPWPALLLGLTIVSGWYWCSDQVIVQRCLAGKSLTHIKAGCILCGYLKLTPMFLMVMPGMISRILYPDEVACVVPEVCRRVCGTEVGCSNIAYPRLVVKLMPNGLRGLMLAVMLAALMSSLASIFNSSSTLFTMDIYTRLRPRAGDRELLLVGRLWVVFIVVVSVAWLPVVQAAQGGQLFDYIQAVSSYLAPPVSAVFVLALFVPRVNEQGAFWGLIGGLLMGLARLIPEFSFGSGSCVQPSACPAFLCGVHYLYFAIVLFFCSGLLTLTVSLCTAPIPRKHLHRLVFSLRHSKEEREDLDADEQQGSSLPVQNGCPESAMEMNEPQAPAPSLFRQCLLWFCGMSRGGVGSPPPLTQEEAAAAARRLEDISEDPSWARVVNLNALLMMAVAVFLWGFYA
partner: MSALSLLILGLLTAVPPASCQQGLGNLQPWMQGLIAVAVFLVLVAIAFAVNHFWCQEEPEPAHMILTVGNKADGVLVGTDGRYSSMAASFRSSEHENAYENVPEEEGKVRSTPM

Variants of: B1
Details: with pdz1i_human PDZK1IP1, Q13113

Row | effect of a mutation on the interaction | Variant
1 | with no effect | D201A
2 | with no effect | F98A
3 | with no effect | S74A
